{"source": "paper PMC11033527", "about": "“Inhibition of SARS-CoV-2 nucleocapsid protein–RNA interaction by guanosine oligomeric RNA”", "key": {"[1]": {"molecular_target": "T1, SARS-CoV-2 nucleocapsid N-terminal RNA-binding domain (NTD) (SARS-CoV-2, UniProt P0DTC9 46-174)", "experiment": "EMSA competition; vs 32P-probe RNA; n=7", "conditions": "protein: recombinant; tags: His-tag (pET-15b)"}, "[2]": {"molecular_target": "SARS-CoV-2 nucleocapsid protein full length (NP) (SARS-CoV-2, UniProt P0DTC9 1-419)"}, "[3]": {"molecular_target": "T1, SARS-CoV-2 nucleocapsid N-terminal …", "experiment": "EMSA; 800 ng NTD, 5 ng RNA", "conditions": "protein: recombinant; tags: His-tag (pET-15b); label: 32P-CTP internal"}, "[4]": {"molecular_target": "T1, SARS-CoV-2 nucleocapsid N-terminal …", "experiment": "EMSA competition; vs 32P-probe RNA; n=4", "conditions": "protein: recombinant; tags: His-tag (pET-15b)"}, "[5]": {"molecular_target": "T1, SARS-CoV-2 nucleocapsid N-terminal …", "experiment": "EMSA competition; vs 32P-probe RNA; n=3", "conditions": "protein: recombinant; tags: His-tag (pET-15b)"}, "[6]": {"molecular_target": "T1, SARS-CoV-2 nucleocapsid N-terminal …", "experiment": "EMSA competition; vs 32P-probe RNA; n=6", "conditions": "protein: recombinant; tags: His-tag (pET-15b)"}}}
{"binder": "CCGGCG (ssRNA)", "note": "[In-1]", "values": [{"measurement": "IC50", "setting": "[1]", "value": "34.3 ± 27.8", "unit": "µM"}]}
{"binder": "CGAGGCCACGCGGAGUACGAUCGAGUGUACAG (ssRNA)", "note": "[FITC-probe RNA (32-base)]", "values": [{"measurement": "binding result", "setting": "[2]", "value": "binds"}]}
{"binder": "GGGCGAGGCCACGCGGAGUACGAUCGAGUGUACAG (ssRNA)", "note": "[32P-probe RNA (T7 transcript)]", "values": [{"measurement": "binding result", "setting": "[3]", "value": "binds"}]}
{"binder": "GGGGGG (ssRNA)", "note": "[G6]", "values": [{"measurement": "IC50", "setting": "[4]", "value": "620 ± 70", "unit": "nM"}]}
{"binder": "GGGGGGGGGGGG (ssRNA)", "note": "[G12]", "values": [{"measurement": "binding result", "setting": "[2]", "value": "binds"}]}
{"binder": "AAAAAA (ssRNA)", "note": "[A6]", "values": [{"measurement": "IC50", "setting": "[5]", "value": "22.9 ± 16.4", "unit": "µM"}]}
{"binder": "CCAGCG (ssRNA)", "note": "[mIn-1 (mIn-1-1)]", "values": [{"measurement": "IC50", "setting": "[6]", "value": "3.48 ± 1.46", "unit": "µM"}]}
